According to patent publication US20120237518A1:

Molecular target: recombinant human Trop-2/Fc/His fusion protein (manufactured by R&D) (human) (UniProt P09758)
Assay: SPR (Biacore T100), Trop-2/Fc/His captured by Tetra-His antibody on CM5 chip, antibody as analyte, Bivalent Analyte model, mean of duplicates

Sequence of recombinant human Trop-2/Fc/His fusion protein (manufactured by R&D) (human) (P09758 27-274 limits assumed): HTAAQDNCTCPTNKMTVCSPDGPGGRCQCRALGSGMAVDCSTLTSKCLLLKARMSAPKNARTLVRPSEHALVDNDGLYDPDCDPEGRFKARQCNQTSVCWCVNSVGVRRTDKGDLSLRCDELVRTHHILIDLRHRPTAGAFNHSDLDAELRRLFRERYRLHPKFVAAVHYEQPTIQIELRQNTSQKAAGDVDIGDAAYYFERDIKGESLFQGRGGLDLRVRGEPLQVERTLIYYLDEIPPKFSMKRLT

| Kd [nM] | koff [s⁻¹] | kon [M⁻¹ s⁻¹] | Substance |
| --- | --- | --- | --- |
| 1.1 | 0.00061 | 555000 | 77220 (manufactured by R&D), anti-Trop-2 mouse monoclonal antibody |
| 0.929 | 0.000184 | 183000 | MOv16 (manufactured by Alexis), anti-Trop-2 mouse monoclonal antibody |
